Test [1] has as its target T1, Human complement factor H purified from plasma (human, UniProt P08603 19-1231). Kind of test: cell-based or functional assay.
For test [2], the target named is T2, Recombinant human CFH, wild-type sequence, from Pichia pastoris (human, UniProt P08603 19-1231). In words: cell-based or functional assay.
Test [3] concerns the target Human C3c (plasma-purified) (human, UniProt P01024 23-667; P01024 749-954; P01024 1321-1663). In words: SPR, amine-coupled C3 fragments on C1 chip. (In general: Surface plasmon resonance follows binding to a sensor surface in real time, without labels.)
In test [4] the target is Human C3b (plasma-purified) (human, UniProt P01024 23-667; P01024 749-1663). Kind of test: SPR, amine-coupled C3 fragments on C1 chip.
The target in test [5] is T3, Human C3d (plasma-purified) (human, UniProt P01024 1002-1303).
T3 construct: domain: TED; also called TED of C3b
Kind of test: SPR, amine-coupled C3 fragments on C1 chip.

For test [6], the target named is T1, Human complement factor H purified from …. In words: SPR, sPspCN on NTA/Ni2+ chip, CFH as analyte, 1:1 kinetic fit.
The target of test [7] is T4, CFH 10-15 (recombinant fragment, CCPs 10-15 of human CFH) (human, UniProt P08603 567-928).
T4 sequence: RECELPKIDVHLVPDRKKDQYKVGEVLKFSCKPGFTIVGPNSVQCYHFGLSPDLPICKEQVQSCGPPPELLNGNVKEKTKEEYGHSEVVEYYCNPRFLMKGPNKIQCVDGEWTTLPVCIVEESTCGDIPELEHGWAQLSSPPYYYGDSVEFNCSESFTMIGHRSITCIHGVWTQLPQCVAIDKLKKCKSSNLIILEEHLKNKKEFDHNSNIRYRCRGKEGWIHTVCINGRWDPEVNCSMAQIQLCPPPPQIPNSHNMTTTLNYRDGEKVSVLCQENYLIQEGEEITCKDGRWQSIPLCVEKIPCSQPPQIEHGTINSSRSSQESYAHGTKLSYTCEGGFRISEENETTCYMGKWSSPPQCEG
In words: SPR, immobilised sPspCN.

For test [8], the target named is T1, Human complement factor H purified from …. Kind of test: not stated there (SPR in the examples).
The target of test [9] is T2, Recombinant human CFH, wild-type …. In words: SPR, sPspCN on NTA/Ni2+ chip, rCFH as analyte, 1:1 kinetic fit.
Test [10] has as its target T5, CFH 8-15 (recombinant fragment, CCPs 8-15 of human CFH) (human, UniProt P08603 446-928).
T5 construct: also called CF8-15
T5 sequence: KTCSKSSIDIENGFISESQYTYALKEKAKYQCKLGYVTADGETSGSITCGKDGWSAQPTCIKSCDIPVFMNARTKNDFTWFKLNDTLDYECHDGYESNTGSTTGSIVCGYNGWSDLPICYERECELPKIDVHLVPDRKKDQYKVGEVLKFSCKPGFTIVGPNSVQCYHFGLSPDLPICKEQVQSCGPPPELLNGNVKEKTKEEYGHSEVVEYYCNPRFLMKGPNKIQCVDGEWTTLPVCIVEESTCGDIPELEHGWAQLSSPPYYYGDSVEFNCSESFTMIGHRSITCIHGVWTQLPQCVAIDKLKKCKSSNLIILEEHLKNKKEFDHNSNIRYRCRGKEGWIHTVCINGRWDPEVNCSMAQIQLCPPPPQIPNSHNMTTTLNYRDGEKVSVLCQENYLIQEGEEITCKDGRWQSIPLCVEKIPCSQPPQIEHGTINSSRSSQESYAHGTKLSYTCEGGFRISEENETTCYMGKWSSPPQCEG
In words: SPR, sPspCN on NTA/Ni2+ chip, CFH 8-15 as analyte, 1:1 kinetic fit.

The target of test [11] is T6, CFH 8-9 (recombinant fragment, CCPs 8-9 of human CFH) (human, UniProt P08603 446-566).
T6 sequence: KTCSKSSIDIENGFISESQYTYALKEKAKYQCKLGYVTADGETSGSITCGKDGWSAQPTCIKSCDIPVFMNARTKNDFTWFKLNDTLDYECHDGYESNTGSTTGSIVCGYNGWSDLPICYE
Kind of test: SPR, sPspCN on NTA/Ni2+ chip, CFH 8-9 concentration series, equilibrium method.

Test [12] has as its target T7, CFH 6-8 (recombinant construct corresponding to CFH CCPs 6-8) (human, UniProt P08603 321-509).
T7 sequence: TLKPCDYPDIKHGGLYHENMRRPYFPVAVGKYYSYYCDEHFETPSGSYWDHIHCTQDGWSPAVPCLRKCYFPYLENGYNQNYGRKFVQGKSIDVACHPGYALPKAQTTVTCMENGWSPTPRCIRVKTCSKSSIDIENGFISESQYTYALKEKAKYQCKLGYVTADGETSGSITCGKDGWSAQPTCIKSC
In words: SPR, sPspCN on NTA/Ni2+ chip.

Test [13] addresses T8, CFH 10-11 (recombinant fragment, CCPs 10-11 of human CFH) (human, UniProt P08603 567-686).
T8 sequence: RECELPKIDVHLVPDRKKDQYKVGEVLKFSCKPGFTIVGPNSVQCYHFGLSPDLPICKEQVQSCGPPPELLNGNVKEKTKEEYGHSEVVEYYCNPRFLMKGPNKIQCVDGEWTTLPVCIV
Kind of test: SPR, sPspCN on NTA/Ni2+ chip.

Test [14] concerns the target T5, CFH 8-15 (recombinant fragment, CCPs …). In words: SPR, sPspCN on NTA/Ni2+ chip.
The target in test [15] is T9, Recombinant human CFH (D1119G) from Pichia pastoris (human, UniProt P08603 19-1231).
T9 construct: also called rCFH-D1119G; rCFH (D1119G)
Kind of test: SPR, sPspCN on NTA/Ni2+ chip, rCFH-D1119G as analyte, 1:1 kinetic fit.

Where “and” joins values, the source holds several entries; their conditions need not be identical. Identical values can stand only once.

T1 sequence (P08603 19-1231 limits assumed): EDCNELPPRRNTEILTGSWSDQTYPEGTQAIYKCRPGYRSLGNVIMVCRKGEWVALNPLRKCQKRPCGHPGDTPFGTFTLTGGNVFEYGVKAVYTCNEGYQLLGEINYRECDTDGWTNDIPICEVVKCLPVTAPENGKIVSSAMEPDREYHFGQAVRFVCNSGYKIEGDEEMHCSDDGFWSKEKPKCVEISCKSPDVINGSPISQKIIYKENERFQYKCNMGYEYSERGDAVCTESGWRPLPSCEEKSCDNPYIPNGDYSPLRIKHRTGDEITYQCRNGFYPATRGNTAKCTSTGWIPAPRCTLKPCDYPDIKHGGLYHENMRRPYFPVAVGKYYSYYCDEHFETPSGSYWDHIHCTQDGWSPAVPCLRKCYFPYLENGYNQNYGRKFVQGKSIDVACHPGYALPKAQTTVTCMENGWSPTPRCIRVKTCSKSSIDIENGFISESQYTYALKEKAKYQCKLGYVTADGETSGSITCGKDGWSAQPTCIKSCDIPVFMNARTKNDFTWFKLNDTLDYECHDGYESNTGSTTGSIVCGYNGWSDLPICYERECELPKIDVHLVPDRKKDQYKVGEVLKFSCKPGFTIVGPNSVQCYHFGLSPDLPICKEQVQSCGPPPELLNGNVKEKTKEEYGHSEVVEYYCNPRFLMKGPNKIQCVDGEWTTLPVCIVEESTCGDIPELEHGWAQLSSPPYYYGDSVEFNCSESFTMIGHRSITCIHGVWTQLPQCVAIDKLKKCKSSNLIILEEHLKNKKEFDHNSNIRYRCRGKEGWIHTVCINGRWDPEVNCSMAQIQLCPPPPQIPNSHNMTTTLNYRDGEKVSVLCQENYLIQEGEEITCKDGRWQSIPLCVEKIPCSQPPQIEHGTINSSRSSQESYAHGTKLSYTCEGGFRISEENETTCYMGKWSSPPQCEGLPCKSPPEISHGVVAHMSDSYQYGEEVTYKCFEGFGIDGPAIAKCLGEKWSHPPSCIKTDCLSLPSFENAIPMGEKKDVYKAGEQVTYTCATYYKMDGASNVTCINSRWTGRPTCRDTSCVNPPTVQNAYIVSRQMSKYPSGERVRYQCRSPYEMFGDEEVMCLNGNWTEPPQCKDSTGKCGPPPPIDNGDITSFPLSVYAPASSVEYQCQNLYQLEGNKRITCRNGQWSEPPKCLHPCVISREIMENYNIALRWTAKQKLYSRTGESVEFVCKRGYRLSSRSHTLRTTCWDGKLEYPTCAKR
T2 sequence (P08603 19-1231 limits assumed): as above
Human C3b (plasma-purified), sequence (P01024 23-667 limits assumed, chain 1 of 2): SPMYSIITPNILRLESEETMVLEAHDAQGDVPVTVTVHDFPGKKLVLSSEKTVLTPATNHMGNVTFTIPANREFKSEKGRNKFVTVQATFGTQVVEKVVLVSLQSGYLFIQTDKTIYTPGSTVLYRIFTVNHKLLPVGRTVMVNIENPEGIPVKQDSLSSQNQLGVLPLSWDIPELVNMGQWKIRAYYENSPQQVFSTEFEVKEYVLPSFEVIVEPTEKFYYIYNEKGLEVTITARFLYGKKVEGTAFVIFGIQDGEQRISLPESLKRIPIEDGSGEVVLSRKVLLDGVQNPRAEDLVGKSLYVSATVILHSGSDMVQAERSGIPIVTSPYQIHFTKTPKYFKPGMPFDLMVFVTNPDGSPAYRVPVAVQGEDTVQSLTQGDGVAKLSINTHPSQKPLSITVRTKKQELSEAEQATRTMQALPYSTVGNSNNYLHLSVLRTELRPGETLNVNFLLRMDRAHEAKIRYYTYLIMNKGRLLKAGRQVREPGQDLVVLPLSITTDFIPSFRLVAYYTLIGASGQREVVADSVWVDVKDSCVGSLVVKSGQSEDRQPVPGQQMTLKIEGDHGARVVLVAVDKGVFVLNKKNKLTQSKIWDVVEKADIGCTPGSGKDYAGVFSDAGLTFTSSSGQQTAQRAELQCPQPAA
Human C3b (plasma-purified), sequence (P01024 749-1663 limits assumed, chain 2 of 2): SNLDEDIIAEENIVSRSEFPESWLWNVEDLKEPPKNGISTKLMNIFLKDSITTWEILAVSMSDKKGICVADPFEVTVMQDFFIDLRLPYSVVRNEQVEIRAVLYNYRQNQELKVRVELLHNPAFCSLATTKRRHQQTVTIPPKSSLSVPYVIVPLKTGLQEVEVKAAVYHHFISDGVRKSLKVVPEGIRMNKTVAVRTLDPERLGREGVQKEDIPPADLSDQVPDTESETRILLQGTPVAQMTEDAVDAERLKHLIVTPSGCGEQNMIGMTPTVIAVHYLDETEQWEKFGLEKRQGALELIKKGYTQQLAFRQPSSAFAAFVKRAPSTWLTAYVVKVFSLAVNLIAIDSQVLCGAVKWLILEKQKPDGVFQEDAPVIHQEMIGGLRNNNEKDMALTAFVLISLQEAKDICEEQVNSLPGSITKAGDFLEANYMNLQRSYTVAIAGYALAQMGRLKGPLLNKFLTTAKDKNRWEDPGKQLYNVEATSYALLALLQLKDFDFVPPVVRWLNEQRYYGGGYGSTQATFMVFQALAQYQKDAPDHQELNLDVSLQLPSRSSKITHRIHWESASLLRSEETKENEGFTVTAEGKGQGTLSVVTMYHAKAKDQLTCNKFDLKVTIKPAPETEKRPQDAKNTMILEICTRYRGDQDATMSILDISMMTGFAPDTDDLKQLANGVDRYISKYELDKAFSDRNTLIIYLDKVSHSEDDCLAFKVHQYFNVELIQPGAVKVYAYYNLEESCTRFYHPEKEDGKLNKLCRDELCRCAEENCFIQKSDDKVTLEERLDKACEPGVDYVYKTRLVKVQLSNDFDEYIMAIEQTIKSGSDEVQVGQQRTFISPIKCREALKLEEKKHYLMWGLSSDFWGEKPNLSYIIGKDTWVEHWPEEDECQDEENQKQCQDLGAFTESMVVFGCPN
Human C3c (plasma-purified), sequence (P01024 23-667, chain 1 of 3): as the sequence (P01024 23-667 limits assumed, chain 1 of 2) above
Human C3c (plasma-purified), sequence (P01024 749-954, chain 2 of 3): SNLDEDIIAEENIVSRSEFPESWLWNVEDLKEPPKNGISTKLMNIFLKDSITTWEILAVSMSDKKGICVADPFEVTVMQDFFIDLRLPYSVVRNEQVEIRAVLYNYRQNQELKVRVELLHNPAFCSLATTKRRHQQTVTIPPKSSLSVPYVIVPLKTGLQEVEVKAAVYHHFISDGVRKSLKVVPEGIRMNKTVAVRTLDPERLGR
Human C3c (plasma-purified), sequence (P01024 1321-1663, chain 3 of 3): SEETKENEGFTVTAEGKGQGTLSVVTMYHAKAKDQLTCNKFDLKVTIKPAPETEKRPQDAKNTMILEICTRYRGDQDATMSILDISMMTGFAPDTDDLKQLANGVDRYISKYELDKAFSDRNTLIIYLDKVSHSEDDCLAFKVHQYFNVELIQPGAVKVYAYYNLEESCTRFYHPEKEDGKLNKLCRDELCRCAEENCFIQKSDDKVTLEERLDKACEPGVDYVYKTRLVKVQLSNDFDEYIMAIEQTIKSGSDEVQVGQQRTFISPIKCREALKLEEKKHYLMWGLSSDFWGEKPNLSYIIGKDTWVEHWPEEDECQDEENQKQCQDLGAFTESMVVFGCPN
T3 sequence (P01024 1002-1303 limits assumed): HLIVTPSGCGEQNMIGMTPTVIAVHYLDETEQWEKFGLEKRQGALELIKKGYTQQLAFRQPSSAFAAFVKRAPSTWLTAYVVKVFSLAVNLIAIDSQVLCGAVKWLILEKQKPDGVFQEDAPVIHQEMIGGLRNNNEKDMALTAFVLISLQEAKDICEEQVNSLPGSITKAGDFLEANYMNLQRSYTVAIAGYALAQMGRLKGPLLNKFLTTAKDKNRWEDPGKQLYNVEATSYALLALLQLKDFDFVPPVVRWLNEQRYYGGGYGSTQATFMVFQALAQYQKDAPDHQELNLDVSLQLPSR
T9 sequence (P08603 19-1231 D1119G limits assumed): as the sequence (P08603 19-1231 limits assumed) above, with D1101G counted along it

B1: PspCN (cleaved, PspC residues 37-140, S. pneumoniae strain D39) (other)
chain: ATENEGSTQAATSSNMAKTEHRKAAKQVVDEYIEKMLREIQLDRRKHTQNVALNIKLSAIKTKYLRELNVLEEKSKDELPSEIKAKLDAAFEKFKKDTLKPGEK
With B1, in test [1], the “inhibition of haemolysis of PNH-like erythrocytes by acidified normal human serum, IC50” value worked out at 28 nM. For the same molecule, the “rate of decay acceleration of C3b.Bb (SPR-based assay)” value in test [2] is around 10 fold. The binding result in test [3], in test [4] and in test [5] was “no binding” throughout.

B2: sPspCN (N-terminally hexaHis-SUMO-tagged PspC residues 37-140, S. pneumoniae strain D39) (other)
chain: B1 chain
notes: not shown: N-terminal hexaHis-SUMO tag from the pE-SUMOpro Kan vector
As for B2, the Kd in test [6] was 0.045 pM; in test [8], around 0.05 pM; in test [9] it was 0.053 pM; in test [10], 1.3 nM; in [11], 26 nM; in [14] it was 1 nM and 2 nM. In addition, the Kd in test [15] amounted to 0.012 nM. Also, the values for the binding result in test [7], in test [12] and in test [13] were “no binding (tested: 50 nM (from the legend))”, “no binding” and “no binding”, respectively.

For orientation: Kd means the constant that tells how readily two partners part at equilibrium.

The record behind these values is patent US20190100563A1 (UNIVERSITY COURT OF THE UNIVERSITY OF EDINBURGH, published 2019).
